Measured values: article PMC12416549 (2024)

T1: TNFR1 (Homo sapiens, UniProt P19438)
T1 chain: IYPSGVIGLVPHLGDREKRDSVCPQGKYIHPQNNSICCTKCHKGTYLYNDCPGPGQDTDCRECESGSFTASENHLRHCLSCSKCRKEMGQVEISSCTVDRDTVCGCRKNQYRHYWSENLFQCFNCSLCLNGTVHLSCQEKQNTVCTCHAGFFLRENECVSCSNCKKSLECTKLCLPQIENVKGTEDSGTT


Target: T1, TNFR1
Assay: yeast display SC50

Row | apparent Kd (screen) [nM] | Binder
1 | 2.25 | Y37M (designed binder) MTLQELLREEALRRAEAEAFRYALELLAEKFPEQKEMLLDLAEEIESQIRSLSGVDVEDVRKFLDKEWAWVKELLAEHPAELAEVEAARAARLAELRAEVEAKVAA
2 | 0.49 | A88H (designed binder) MTLQELLREEALRRAEAEAFRYALELLAEKFPEQKEYLLDLAEEIESQIRSLSGVDVEDVRKFLDKEWAWVKELLAEHPAELAEVEAHRAARLAELRAEVEAKVAA
3 | 0.446 | L96E (designed binder) MTLQELLREEALRRAEAEAFRYALELLAEKFPEQKEYLLDLAEEIESQIRSLSGVDVEDVRKFLDKEWAWVKELLAEHPAELAEVEAARAARLAEERAEVEAKVAA
4 | 12.5 | D59F (designed binder) MTLQELLREEALRRAEAEAFRYALELLAEKFPEQKEYLLDLAEEIESQIRSLSGVDVEFVRKFLDKEWAWVKELLAEHPAELAEVEAARAARLAELRAEVEAKVAA
5 | 0.869 | K66R (designed binder) MTLQELLREEALRRAEAEAFRYALELLAEKFPEQKEYLLDLAEEIESQIRSLSGVDVEDVRKFLDREWAWVKELLAEHPAELAEVEAARAARLAELRAEVEAKVAA
6 | 0.653 | P79I (designed binder) MTLQELLREEALRRAEAEAFRYALELLAEKFPEQKEYLLDLAEEIESQIRSLSGVDVEDVRKFLDKEWAWVKELLAEHIAELAEVEAARAARLAELRAEVEAKVAA
7 | 4.39 | V60E (designed binder) MTLQELLREEALRRAEAEAFRYALELLAEKFPEQKEYLLDLAEEIESQIRSLSGVDVEDERKFLDKEWAWVKELLAEHPAELAEVEAARAARLAELRAEVEAKVAA
8 | 0.446 | E77K (designed binder) MTLQELLREEALRRAEAEAFRYALELLAEKFPEQKEYLLDLAEEIESQIRSLSGVDVEDVRKFLDKEWAWVKELLAKHPAELAEVEAARAARLAELRAEVEAKVAA
9 | 0.718 | E29P (designed binder) MTLQELLREEALRRAEAEAFRYALELLAPKFPEQKEYLLDLAEEIESQIRSLSGVDVEDVRKFLDKEWAWVKELLAEHPAELAEVEAARAARLAELRAEVEAKVAA
10 | 0.539 | E73H (designed binder) MTLQELLREEALRRAEAEAFRYALELLAEKFPEQKEYLLDLAEEIESQIRSLSGVDVEDVRKFLDKEWAWVKHLLAEHPAELAEVEAARAARLAELRAEVEAKVAA
11 | 0.718 | E95P (designed binder) MTLQELLREEALRRAEAEAFRYALELLAEKFPEQKEYLLDLAEEIESQIRSLSGVDVEDVRKFLDKEWAWVKELLAEHPAELAEVEAARAARLAPLRAEVEAKVAA
12 | 0.446 | A98K (designed binder) MTLQELLREEALRRAEAEAFRYALELLAEKFPEQKEYLLDLAEEIESQIRSLSGVDVEDVRKFLDKEWAWVKELLAEHPAELAEVEAARAARLAELRKEVEAKVAA
13 | 0.539 | L41T (designed binder) MTLQELLREEALRRAEAEAFRYALELLAEKFPEQKEYLLDTAEEIESQIRSLSGVDVEDVRKFLDKEWAWVKELLAEHPAELAEVEAARAARLAELRAEVEAKVAA
14 | 0.539 | D59A (designed binder) MTLQELLREEALRRAEAEAFRYALELLAEKFPEQKEYLLDLAEEIESQIRSLSGVDVEAVRKFLDKEWAWVKELLAEHPAELAEVEAARAARLAELRAEVEAKVAA
15 | 15.2 | L7E (designed binder) MTLQELEREEALRRAEAEAFRYALELLAEKFPEQKEYLLDLAEEIESQIRSLSGVDVEDVRKFLDKEWAWVKELLAEHPAELAEVEAARAARLAELRAEVEAKVAA
16 | 0.653 | R8S (designed binder) MTLQELLSEEALRRAEAEAFRYALELLAEKFPEQKEYLLDLAEEIESQIRSLSGVDVEDVRKFLDKEWAWVKELLAEHPAELAEVEAARAARLAELRAEVEAKVAA
17 | 0.593 | A80Y (designed binder) MTLQELLREEALRRAEAEAFRYALELLAEKFPEQKEYLLDLAEEIESQIRSLSGVDVEDVRKFLDKEWAWVKELLAEHPYELAEVEAARAARLAELRAEVEAKVAA
18 | 0.869 | V100A (designed binder) MTLQELLREEALRRAEAEAFRYALELLAEKFPEQKEYLLDLAEEIESQIRSLSGVDVEDVRKFLDKEWAWVKELLAEHPAELAEVEAARAARLAELRAEAEAKVAA
19 | 0.956 | D65L (designed binder) MTLQELLREEALRRAEAEAFRYALELLAEKFPEQKEYLLDLAEEIESQIRSLSGVDVEDVRKFLLKEWAWVKELLAEHPAELAEVEAARAARLAELRAEVEAKVAA
20 | 0.718 | A15D (designed binder) MTLQELLREEALRRDEAEAFRYALELLAEKFPEQKEYLLDLAEEIESQIRSLSGVDVEDVRKFLDKEWAWVKELLAEHPAELAEVEAARAARLAELRAEVEAKVAA
21 | 0.593 | A98H (designed binder) MTLQELLREEALRRAEAEAFRYALELLAEKFPEQKEYLLDLAEEIESQIRSLSGVDVEDVRKFLDKEWAWVKELLAEHPAELAEVEAARAARLAELRHEVEAKVAA
22 | 0.593 | K103V (designed binder) MTLQELLREEALRRAEAEAFRYALELLAEKFPEQKEYLLDLAEEIESQIRSLSGVDVEDVRKFLDKEWAWVKELLAEHPAELAEVEAARAARLAELRAEVEAVVAA
23 | 22.2 | W70A (designed binder) MTLQELLREEALRRAEAEAFRYALELLAEKFPEQKEYLLDLAEEIESQIRSLSGVDVEDVRKFLDKEWAAVKELLAEHPAELAEVEAARAARLAELRAEVEAKVAA
24 | 0.593 | E77Q (designed binder) MTLQELLREEALRRAEAEAFRYALELLAEKFPEQKEYLLDLAEEIESQIRSLSGVDVEDVRKFLDKEWAWVKELLAQHPAELAEVEAARAARLAELRAEVEAKVAA
25 | 0.869 | R92H (designed binder) MTLQELLREEALRRAEAEAFRYALELLAEKFPEQKEYLLDLAEEIESQIRSLSGVDVEDVRKFLDKEWAWVKELLAEHPAELAEVEAARAAHLAELRAEVEAKVAA
26 | 1.54 | L82G (designed binder) MTLQELLREEALRRAEAEAFRYALELLAEKFPEQKEYLLDLAEEIESQIRSLSGVDVEDVRKFLDKEWAWVKELLAEHPAEGAEVEAARAARLAELRAEVEAKVAA
